Measured values as given in patent publication US20040132045A1 (MERCK, published 2004).
Where “and” joins values, the source holds several entries; their conditions need not be identical. Equal values may be shown once. Bridges are numbered along the chain shown (N, C = ends). Where no end group is shown, it is not given here.

B1: Melanin-concentrating hormone (MCH) (peptide, UniProt P20382 147-165, looked up)
peptide: DFDMLRCMLGRVYRPCWQV
modifications: disulfide 7-16 (inferred)
notes: mature; also called cold MCH; MCH unlabeled peptide

Assays:
[1] = target: rhesus monkey MCH-2R (melanin-concentrating hormone type 2 receptor) (rhesus monkey) (UniProt Q8MJ88); test: radioligand binding to HEK293T cells expressing rhesus MCH-2R, cell-bound radioactivity
Chain of rhesus monkey MCH-2R (melanin-concentrating hormone type 2 receptor) (rhesus monkey) (Q8MJ88 whole entry): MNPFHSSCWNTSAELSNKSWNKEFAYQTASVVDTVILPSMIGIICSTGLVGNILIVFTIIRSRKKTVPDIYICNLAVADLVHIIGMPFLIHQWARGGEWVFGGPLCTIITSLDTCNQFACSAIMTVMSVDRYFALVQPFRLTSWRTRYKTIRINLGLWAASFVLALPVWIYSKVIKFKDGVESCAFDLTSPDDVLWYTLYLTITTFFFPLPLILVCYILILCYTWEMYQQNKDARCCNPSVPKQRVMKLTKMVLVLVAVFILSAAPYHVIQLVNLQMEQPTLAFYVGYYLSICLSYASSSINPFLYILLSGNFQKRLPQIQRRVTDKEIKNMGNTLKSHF

[2] = target: rhesus monkey MCH-2R (melanin-concentrating hormone type 2 receptor) (rhesus monkey) (UniProt Q8MJ88); test: radioligand binding to HEK293T cells expressing rhesus MCH-2R in the presence of 1 uM cold [Phe13, Tyr19]-MCH
ferret MCH-2R [3] = target: T1, ferret MCH-2R (ferret, UniProt Q969V1 1-340 (human entry)); test: radioligand competition binding on membranes of COS-7 cells transfected with ferret MCH-2R; radioligand not named
T1 construct: Function was measured in HEK-293 aequorin cells
T1 chain: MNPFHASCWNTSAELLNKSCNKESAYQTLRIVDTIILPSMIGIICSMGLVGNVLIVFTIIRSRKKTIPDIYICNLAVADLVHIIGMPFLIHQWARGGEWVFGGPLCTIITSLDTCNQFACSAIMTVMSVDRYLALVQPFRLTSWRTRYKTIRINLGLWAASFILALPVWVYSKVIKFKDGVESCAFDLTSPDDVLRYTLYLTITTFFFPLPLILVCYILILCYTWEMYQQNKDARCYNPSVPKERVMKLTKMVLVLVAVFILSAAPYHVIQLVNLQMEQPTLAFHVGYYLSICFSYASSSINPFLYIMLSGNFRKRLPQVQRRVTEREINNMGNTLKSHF
Protocol: (§1) (Strader, et al., 1987. Proc. Natl. Acad. Sci. USA 84, 4384-4388). Cells were harvested after 60-72 hours. Membranes were prepared from transient and stable transfectants by hypotonic lysis, frozen in liquid nitrogen, and stored at −80° C. (MacNeil, et al., 1994. Biochem. Biophys. Res. Commun. 198, 328-334.)
(§2) A binding assay was set up in 96 well plates. Total volume per binding assay point was 200 μL. […] Dose response curves were from 10 μM in 5 fold or 3-fold dilution series for 11 points. The mixture was shaken for 5 minutes on a platform shaker, and incubated at room temperature for 1 hour. Filter plates were presoaked in 1% PEI. The binding reaction was harvested onto filters using Packard Filtermate harvester (Meriden, Conn.). The filters were then washed in 50 mM Tris pH 7.4, 10 mM MgCl₂, 2 mM EDTA, 0.04% Tween 20, 6-8 times per plate. The plates were dried for 20 minutes at 55° C. or overnight at room temperature. 30 μL microscintillant was added per well and counted for 1.5-3 minutes in inverted format on Packard TopCount.

ferret MCH-2R [4] = target: T1, ferret MCH-2R; test: cell-based or functional assay
human MCH-2R [5] = target: T2, human MCH-2R (human, UniProt Q969V1 1-340); test: cell-based or functional assay
T2 sequence (Q969V1 whole entry): as the sequence (Q8MJ88 whole entry) above, with S6A, S16L, I84V, S143R, V163I, I170V, A258V, V324A, D326E, K330N counted along it

[6] = target: T3, rhesus monkey MCH-2R (melanin-concentrating hormone type 2 receptor) (rhesus monkey, UniProt Q8MJ88 1-340); test: cell-based or functional assay
T3 sequence (Q8MJ88 whole entry): as the sequence (Q8MJ88 whole entry) above

human MCH-2R [7] = target: T2, human MCH-2R; test: radioligand competition binding on membranes of COS-7 cells transfected with human MCH-2R; radioligand not named
Protocol: as §1, §2

[8] = target: T3, rhesus monkey MCH-2R …; test: displacement of 100 pM [125I]-[Phe13, Tyr19]-MCH from HEK293T cells expressing rhesus MCH-2R, filtration
Protocol: The remaining radio activity on the filter was quantitated using a TopCount HTS (Packard instrument) with a Microscint 0 scintillation cocktail (Packard instrument). […] Data were analyzed using GraphPad Prism Version 3.0.

Molecule	Total binding (cpm) [1]	Nonspecific binding (cpm) [2]	IC50 (ferret MCH-2R [3])	Function (EC50, nM), aequorin bioluminescence assay (ferret MCH-2R [4])	Function (EC50, nM), aequorin bioluminescence assay (human MCH-2R [5])	increase in intracellular calcium levels (fura-2), EC50 [6]	IC50 (human MCH-2R [7])	IC50 [8]
[^125I]-[Phe^13, Tyr^19]-MCH (from UniProt P20382 147-165) (peptide)	18000 cpm (2×) and 18700 cpm	598 cpm and 567 cpm and 717 cpm	–	–	–	–	–	–
B1	–	–	55 nM	69 nM	43 nM	24 nM	10 nM	–
DFDMLRCMLGRVFRPCWQY (ends and bridges not checked; cysteine pairing not given here) [[Phe^13, Tyr^19]-MCH]	–	–	–	–	–	49 nM	–	3.8 nM
